US20040180375A1
One block for each binder: values may come before it.

Columns and labels:
Assay in all cases: cell-based or functional assay
[1] = target: human His6-Gαi2 (expressed in Sf9 cells) (human) (UniProt P04899)
rat Gαs (rat) = rat Gαs (rat) (UniProt P63095)
[2] = target: GPA1(1-41)-Gαi3 (GPA1-human Gαi3 fusion construct) (yeast; human) (UniProt P08539)
yeast GPA1 (yeast) = target: T1, yeast GPA1 (yeast) (UniProt P08539)
T1 sequence (looked up): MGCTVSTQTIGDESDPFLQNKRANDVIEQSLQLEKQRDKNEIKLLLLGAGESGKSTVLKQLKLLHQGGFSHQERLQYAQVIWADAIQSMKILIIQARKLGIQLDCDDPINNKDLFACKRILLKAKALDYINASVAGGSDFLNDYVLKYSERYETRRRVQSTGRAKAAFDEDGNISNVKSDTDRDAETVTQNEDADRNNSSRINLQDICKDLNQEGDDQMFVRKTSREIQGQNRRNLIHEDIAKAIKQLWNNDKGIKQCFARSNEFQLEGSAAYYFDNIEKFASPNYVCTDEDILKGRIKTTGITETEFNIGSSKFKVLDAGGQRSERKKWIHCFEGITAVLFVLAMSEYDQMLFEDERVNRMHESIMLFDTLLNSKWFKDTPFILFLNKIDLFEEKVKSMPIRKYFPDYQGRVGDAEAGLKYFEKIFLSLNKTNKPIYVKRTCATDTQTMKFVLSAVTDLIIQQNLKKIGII

[3] = target: GPA1(1-41)-Gα16(S270P) (GPA1-human Gα16 fusion construct) (yeast; human)
[4] = target: GPA1(1-41)-Gαi2 chimera (first 41 amino acids of yeast Gpa1 fused to amino acids 36-356 of human Gαi2) (yeast; human) (UniProt P08539)

Chain of rat Gαs (rat) (P63095 whole entry, the tested form may be a part): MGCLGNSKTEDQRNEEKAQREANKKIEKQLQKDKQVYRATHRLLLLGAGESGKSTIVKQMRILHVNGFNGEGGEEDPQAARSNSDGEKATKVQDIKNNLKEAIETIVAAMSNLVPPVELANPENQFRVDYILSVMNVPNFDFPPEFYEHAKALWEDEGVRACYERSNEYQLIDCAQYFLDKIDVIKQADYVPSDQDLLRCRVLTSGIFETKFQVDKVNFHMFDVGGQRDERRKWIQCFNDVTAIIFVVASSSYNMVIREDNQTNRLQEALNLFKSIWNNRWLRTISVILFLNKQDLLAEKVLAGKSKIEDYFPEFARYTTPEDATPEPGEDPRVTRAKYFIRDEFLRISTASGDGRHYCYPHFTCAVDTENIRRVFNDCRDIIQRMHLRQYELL
Chain of human His6-Gαi2 (expressed in Sf9 cells) (human) (P04899 whole entry): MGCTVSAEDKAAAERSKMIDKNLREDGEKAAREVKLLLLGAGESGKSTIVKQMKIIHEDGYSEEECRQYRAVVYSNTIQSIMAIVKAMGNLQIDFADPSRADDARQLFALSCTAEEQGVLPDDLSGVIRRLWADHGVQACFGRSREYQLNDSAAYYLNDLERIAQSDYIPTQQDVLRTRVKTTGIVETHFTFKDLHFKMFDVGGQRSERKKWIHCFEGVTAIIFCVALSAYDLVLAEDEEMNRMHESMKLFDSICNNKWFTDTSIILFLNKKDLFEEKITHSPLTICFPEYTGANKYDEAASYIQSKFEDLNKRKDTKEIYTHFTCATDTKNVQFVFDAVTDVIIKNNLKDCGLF

GTPγS binding to purified Gα (filter binding of GTPγ35S, 40 min) [1]: 25%
B1: GST-AGS1 (N-terminal GST fusion of AGS1, expressed in yeast from the CUP1 promoter on plasmid pYEX-4T1) (protein, not shown: a dimerising Fc or GST)
chain: MKLAAMIKKMCPSDSELSIPAKNCYRMVILGSSKVGKTAIVSRFLTGRFEDAYTPTIEDFHRKFYSIRGEVYQLDILDTSGNHPFPAMRRLSILTGDVFILVFSLDNRDSFEEVQRLRQQILDTKSCLKNKTKENVDVPLVICGNKGDRDFYREVDQREIEQLVGDDPQRCAYFEISAKKNSSLDQMFRALFAMAKLPSEMSPDLHRKVSVQYCDVLHKKALRNKKLLRAGSGGGGGDPGDAFGIVAPFARRPSVHSDLMYIREKASAGSQAKDKERCVIS

β-galactosidase activity (FUS1p-lacZ reporter in yeast, AGS1, galactose) (relative β-galactosidase activity) (rat Gαs (rat)): 6.4
β-galactosidase activity (FUS1p-lacZ reporter in yeast, AGS1, galactose) (relative β-galactosidase activity) [2]: 63.3
β-galactosidase activity (FUS1p-lacZ reporter in yeast, AGS1, galactose) (relative β-galactosidase activity) (yeast GPA1 (yeast)): 7.6
β-galactosidase activity (FUS1p-lacZ reporter in yeast, AGS1, galactose) (relative β-galactosidase activity) [3]: 22.5
β-galactosidase activity (FUS1p-lacZ reporter in yeast, AGS1, galactose) (relative β-galactosidase activity) [4]: 125
B2: AGS1 (Activator of G protein Signaling, human, 281 amino acids) (protein)
chain: B1 chain
